Test results as given in patent publication US7807788.
Values joined by “and” are separate entries in the source; they are usually repeats but may differ in a detail not shown here. Identical values can stand only once.

Assays:
IL-13 16 mer peptide 13 = biological target: T1, IL-13 16 mer peptide 13; test: 16 mer peptide ELISA; peptide 13
T1 sequence (peptide, N-terminal biotin; C-terminal amide): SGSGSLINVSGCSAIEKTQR

IL-13 16 mer peptide 20 = biological target: T2, IL-13 16 mer peptide 20; test: 16 mer peptide ELISA; peptide 20
T2 sequence (peptide, N-terminal biotin; C-terminal amide): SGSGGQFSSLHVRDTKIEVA

IL-13 16 mer peptide 14 = biological target: T3, IL-13 16 mer peptide 14; test: 16 mer peptide ELISA; peptide 14
T3 sequence (peptide, N-terminal biotin; C-terminal amide): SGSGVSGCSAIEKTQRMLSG

IL-13 16 mer peptide 10 = biological target: T4, IL-13 16 mer peptide 10; test: 16 mer peptide ELISA; peptide 10
T4 sequence (peptide, N-terminal biotin; C-terminal amide): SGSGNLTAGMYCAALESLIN

IL-13 16 mer peptide 3 = biological target: T5, IL-13 16 mer peptide 3; test: 16 mer peptide ELISA; peptide 3
T5 sequence (peptide, N-terminal biotin; C-terminal amide): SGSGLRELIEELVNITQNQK

IL-13 16 mer peptide 5 = biological target: T6, IL-13 16 mer peptide 5; test: 16 mer peptide ELISA; peptide 5
T6 sequence (peptide, N-terminal biotin; C-terminal amide): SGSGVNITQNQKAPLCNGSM

IL-13 16 mer peptide 39 = biological target: T7, IL-13 16 mer peptide 39; test: 16 mer peptide ELISA; peptide 39
T7 sequence (peptide, N-terminal biotin; C-terminal amide): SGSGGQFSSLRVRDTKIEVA

IL-13 16 mer peptide 27 = biological target: T8, IL-13 16 mer peptide 27; test: 16 mer peptide ELISA; peptide 27
T8 sequence (peptide, N-terminal biotin; C-terminal amide): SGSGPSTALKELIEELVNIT

IL-13 16 mer peptide 28 = biological target: T9, IL-13 16 mer peptide 28; test: 16 mer peptide ELISA; peptide 28
T9 sequence (peptide, N-terminal biotin; C-terminal amide): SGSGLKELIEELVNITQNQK

IL-13 16 mer peptide 19 = biological target: T10, IL-13 16 mer peptide 19; test: 16 mer peptide ELISA; peptide 19
T10 sequence (peptide, N-terminal biotin; C-terminal amide): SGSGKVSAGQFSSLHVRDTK

IL-13 16 mer peptide 18 = biological target: T11, IL-13 16 mer peptide 18; test: 16 mer peptide ELISA; peptide 18
T11 sequence (peptide, N-terminal biotin; C-terminal amide): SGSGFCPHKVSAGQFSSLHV

IL-13 16 mer peptide 9 = biological target: T12, IL-13 16 mer peptide 9; test: 16 mer peptide ELISA; peptide 9
T12 sequence (peptide, N-terminal biotin; C-terminal amide): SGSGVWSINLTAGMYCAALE

IL-13 16 mer peptide 41 = biological target: T13, IL-13 16 mer peptide 41; test: 16 mer peptide ELISA; peptide 41
T13 sequence (peptide, by the resolver, N-terminal biotin on the SGSG spacer; C-terminal amide): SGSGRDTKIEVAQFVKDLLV

IL-13 16 mer peptide 40 = biological target: T14, IL-13 16 mer peptide 40; test: 16 mer peptide ELISA; peptide 40
T14 sequence (peptide, N-terminal biotin; C-terminal amide): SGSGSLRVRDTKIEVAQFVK

IL-13 16 mer peptide 21 = biological target: T15, IL-13 16 mer peptide 21; test: 16 mer peptide ELISA; peptide 21
T15 sequence (peptide, N-terminal biotin; C-terminal amide): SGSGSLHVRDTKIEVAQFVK

IL-13 16 mer peptide 35 = biological target: T16, IL-13 16 mer peptide 35; test: 16 mer peptide ELISA; peptide 35
T16 sequence (peptide, N-terminal biotin; C-terminal amide): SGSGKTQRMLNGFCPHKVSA

IL-13 16 mer peptide 12 = biological target: T17, IL-13 16 mer peptide 12; test: 16 mer peptide ELISA; peptide 12
T17 sequence (peptide, N-terminal biotin; C-terminal amide): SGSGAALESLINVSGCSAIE

IL-13 16 mer peptide 2 = biological target: T18, IL-13 16 mer peptide 2; test: 16 mer peptide ELISA; peptide 2
T18 sequence (peptide, N-terminal biotin; C-terminal amide): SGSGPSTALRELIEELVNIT

IL-13 16 mer peptide 37 = biological target: T19, IL-13 16 mer peptide 37; test: 16 mer peptide ELISA; peptide 37
T19 sequence (peptide, N-terminal biotin; C-terminal amide): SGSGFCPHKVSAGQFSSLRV

IL-13 16 mer peptide 6 = biological target: T20, IL-13 16 mer peptide 6; test: 16 mer peptide ELISA; peptide 6
T20 sequence (peptide, N-terminal biotin; C-terminal amide): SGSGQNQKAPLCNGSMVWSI

IL-13 16 mer peptide 42 = biological target: T21, IL-13 16 mer peptide 42; test: 16 mer peptide ELISA; peptide 42
T21 sequence (peptide, N-terminal biotin; C-terminal amide): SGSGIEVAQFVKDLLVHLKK

IL-13 16 mer peptide 36 = biological target: T22, IL-13 16 mer peptide 36; test: 16 mer peptide ELISA; peptide 36
T22 sequence (peptide, N-terminal biotin; C-terminal amide): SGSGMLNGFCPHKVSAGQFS

IL-13 16 mer peptide 11 = biological target: T23, IL-13 16 mer peptide 11; test: 16 mer peptide ELISA; peptide 11
T23 sequence (peptide, N-terminal biotin; C-terminal amide): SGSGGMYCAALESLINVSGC

IL-13 16 mer peptide 34 = biological target: T24, IL-13 16 mer peptide 34; test: 16 mer peptide ELISA; peptide 34
T24 sequence (peptide, N-terminal biotin; C-terminal amide): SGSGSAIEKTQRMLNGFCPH

IL-13 16 mer peptide 29 = biological target: T25, IL-13 16 mer peptide 29; test: 16 mer peptide ELISA; peptide 29
T25 sequence (peptide, N-terminal biotin; C-terminal amide): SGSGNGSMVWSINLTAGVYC

IL-13 16 mer peptide 22 = biological target: T26, IL-13 16 mer peptide 22; test: 16 mer peptide ELISA; peptide 22
T26 sequence (peptide, N-terminal biotin; C-terminal amide): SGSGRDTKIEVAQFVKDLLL

IL-13 16 mer peptide 15 = biological target: T27, IL-13 16 mer peptide 15; test: 16 mer peptide ELISA; peptide 15
T27 sequence (peptide, N-terminal biotin; C-terminal amide): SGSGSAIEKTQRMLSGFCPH

IL-13 16 mer peptide 23 = biological target: T28, IL-13 16 mer peptide 23; test: 16 mer peptide ELISA; peptide 23
T28 sequence (peptide, N-terminal biotin; C-terminal amide): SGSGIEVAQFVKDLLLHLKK

IL-13 16 mer peptide 17 = biological target: T29, IL-13 16 mer peptide 17; test: 16 mer peptide ELISA; peptide 17
T29 sequence (peptide, N-terminal biotin; C-terminal amide): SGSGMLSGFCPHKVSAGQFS

IL-13 16 mer peptide 8 = biological target: T30, IL-13 16 mer peptide 8; test: 16 mer peptide ELISA; peptide 8
T30 sequence (peptide, N-terminal biotin; C-terminal amide): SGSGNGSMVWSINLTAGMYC

IL-13 16 mer peptide 30 = biological target: T31, IL-13 16 mer peptide 30; test: 16 mer peptide ELISA; peptide 30
T31 sequence (peptide, N-terminal biotin; C-terminal amide): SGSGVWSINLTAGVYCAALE

IL-13 16 mer peptide 16 = biological target: T32, IL-13 16 mer peptide 16; test: 16 mer peptide ELISA; peptide 16
T32 sequence (peptide, N-terminal biotin; C-terminal amide): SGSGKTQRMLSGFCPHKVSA

IL-13 16 mer peptide 32 = biological target: T33, IL-13 16 mer peptide 32; test: 16 mer peptide ELISA; peptide 32
T33 sequence (peptide, N-terminal biotin; C-terminal amide): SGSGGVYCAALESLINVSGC

IL-13 16 mer peptide 31 = biological target: T34, IL-13 16 mer peptide 31; test: 16 mer peptide ELISA; peptide 31
T34 sequence (peptide, N-terminal biotin; C-terminal amide): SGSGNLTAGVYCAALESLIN

IL-13 16 mer peptide 7 = biological target: T35, IL-13 16 mer peptide 7; test: 16 mer peptide ELISA; peptide 7
T35 sequence (peptide, N-terminal biotin; C-terminal amide): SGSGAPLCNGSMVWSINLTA

IL-13 16 mer peptide 4 = biological target: T36, IL-13 16 mer peptide 4; test: 16 mer peptide ELISA; peptide 4
T36 sequence (peptide, N-terminal biotin; C-terminal amide): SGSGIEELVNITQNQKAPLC

IL-13 16 mer peptide 33 = biological target: T37, IL-13 16 mer peptide 33; test: 16 mer peptide ELISA; peptide 33
T37 sequence (peptide, N-terminal biotin; C-terminal amide): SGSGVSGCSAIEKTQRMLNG

IL-13 16 mer peptide 38 = biological target: T38, IL-13 16 mer peptide 38; test: 16 mer peptide ELISA; peptide 38
T38 sequence (peptide, N-terminal biotin; C-terminal amide): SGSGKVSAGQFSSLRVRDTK

B1: mouse monoclonal antibody 6A1 (antibody, mouse IgG1, V domains shown)
VH: EIQLQQSVAELVRPGASVRLSCTASGFYIKDTYMHWVIQRPEQGLEWIGTIDPANGNTKYVPKFQGKATITADTSSNTAYLRLSSLTSEDTAIYYCARSIYDDYHYDDYYAMDYWGQGTSVTVSS
VL: DVLMTQTPLSLPVSLGDQASISCRSSQNIVHINGNTYLEWYLQKPGQSPKLLIYKISDRFSGVPDRFSGSGSGTDFTLKISRVEAEDLGVYYCFQGSHVPWTFGGGTKLEIK
absorbance at 490 nm (IL-13 16 mer peptide 13): 0.066 A490 and 0.063 A490
absorbance at 490 nm (IL-13 16 mer peptide 20): 0.06 A490 and 0.104 A490
absorbance at 490 nm (IL-13 16 mer peptide 14): 0.119 A490 and 0.115 A490
absorbance at 490 nm (IL-13 16 mer peptide 10): 0.075 A490 and 0.064 A490
absorbance at 490 nm (IL-13 16 mer peptide 3): 0.067 A490 and 0.07 A490
absorbance at 490 nm (IL-13 16 mer peptide 5): 0.063 A490 and 0.065 A490
absorbance at 490 nm (IL-13 16 mer peptide 39): 0.057 A490 and 0.055 A490
absorbance at 490 nm (IL-13 16 mer peptide 27): 0.06 A490 and 0.082 A490
absorbance at 490 nm (IL-13 16 mer peptide 28): 0.074 A490 and 0.078 A490
absorbance at 490 nm (IL-13 16 mer peptide 19): 0.077 A490 and 0.063 A490
absorbance at 490 nm (IL-13 16 mer peptide 18): 0.073 A490 and 0.09 A490
absorbance at 490 nm (IL-13 16 mer peptide 9): 0.061 A490 and 0.07 A490
absorbance at 490 nm (IL-13 16 mer peptide 41): 0.058 A490
absorbance at 490 nm (IL-13 16 mer peptide 40): 0.06 A490
absorbance at 490 nm (IL-13 16 mer peptide 21): 0.061 A490 and 0.078 A490
absorbance at 490 nm (IL-13 16 mer peptide 35): 0.089 A490 and 0.09 A490
absorbance at 490 nm (IL-13 16 mer peptide 12): 0.075 A490 and 0.062 A490
absorbance at 490 nm (IL-13 16 mer peptide 2): 0.057 A490 and 0.068 A490
absorbance at 490 nm (IL-13 16 mer peptide 37): 0.068 A490 and 0.063 A490
absorbance at 490 nm (IL-13 16 mer peptide 6): 0.072 A490 and 0.075 A490
absorbance at 490 nm (IL-13 16 mer peptide 42): 0.104 A490 and 0.108 A490
absorbance at 490 nm (IL-13 16 mer peptide 36): 0.073 A490 and 0.074 A490
absorbance at 490 nm (IL-13 16 mer peptide 11): 0.064 A490 and 0.061 A490
absorbance at 490 nm (IL-13 16 mer peptide 34): 0.082 A490 and 0.067 A490
absorbance at 490 nm (IL-13 16 mer peptide 29): 0.098 A490 and 0.071 A490
absorbance at 490 nm (IL-13 16 mer peptide 22): 0.09 A490 and 0.076 A490
absorbance at 490 nm (IL-13 16 mer peptide 15): 0.081 A490 and 0.129 A490
absorbance at 490 nm (IL-13 16 mer peptide 23): 0.144 A490 and 0.135 A490
absorbance at 490 nm (IL-13 16 mer peptide 17): 0.064 A490 and 0.06 A490
absorbance at 490 nm (IL-13 16 mer peptide 8): 0.084 A490 and 0.071 A490
absorbance at 490 nm (IL-13 16 mer peptide 30): 0.062 A490
absorbance at 490 nm (IL-13 16 mer peptide 16): 0.099 A490 and 0.141 A490
absorbance at 490 nm (IL-13 16 mer peptide 32): 0.071 A490 and 0.057 A490
absorbance at 490 nm (IL-13 16 mer peptide 31): 0.064 A490 and 0.056 A490
absorbance at 490 nm (IL-13 16 mer peptide 7): 0.061 A490 and 0.072 A490
absorbance at 490 nm (IL-13 16 mer peptide 4): 0.079 A490 and 0.105 A490
absorbance at 490 nm (IL-13 16 mer peptide 33): 0.088 A490 and 0.084 A490
absorbance at 490 nm (IL-13 16 mer peptide 38): 0.067 A490 and 0.056 A490
